In paper doi:10.1101/2024.01.09.574565, “Human coronavirus HKU1 recognition of the TMPRSS2 host receptor” (bioRxiv, 2024):

B1: HKU1 spike (S) glycoprotein: S357A (protein)
parent chain: MLLIIFILPTTLAVIGDFNCTNFAINDLNTTVPRISEYVVDVSYGLGTYYILDRVYLNTTILFTGYFPKSGANFRDLSLKGTTYLSTLWYQKPFLSDFNNGIFSRVKNTKLYVNKTLYSEFSTIVIGSVFINNSYTIVVQPHNGVLEITACQYTMCEYPHTICKSKGSSRNESWHFDKSEPLCLFKKNFTYNVSTDWLYFHFYQERGTFYAYYADSGMPTTFLFSLYLGTLLSHYYVLPLTCNAISSNTDNETLQYWVTPLSKRQYLLKFDNRGVITNAVDCSSSFFSEIQCKTKSLLPNTGVYDLSGFTVKPVATVHRRIPDLPDCDIDKWLNNFNVPSPLNWERKIFSNCNFNLSTLLRLVHTDSFSCNNFDESKIYGSCFKSIVLDKFAIPNSRRSDLQLGSSGFLQSSNYKIDTTSSSCQLYYSLPAINVTINNYNPSSWNRRYGFNNFNLSSHSVVYSRYCFSVNNTFCPCAKPSFASSCKSHKPPSASCPIGTNYRSCESTTVLDHTDWCRCSCLPDPITAYDPRSCSQKKSLVGVGEHCAGFGVDEEKCGVLDGSYNVSCLCSTDAFLGWSYDTCVSNNRCNIFSNFILNGINSGTTCSNDLLQPNTEVFTDVCVDYDLYGITGQGIFKEVSAVYYNSWQNLLYDSNGNIIGFKDFVTNKTYNIFPCYAGRVSAAFHQNASSLALLYRNLKCSYVLNNISLTTQPYFDSYLGCVFNADNLTDYSVSSCALRMGSGFCVDYNSPSSSSSRRKRRSISASYRFVTFEPFNVSFVNDSIESVGGLYEIKIPTNFTIVGQEEFIQTNSPKVTIDCSLFVCSNYAACHDLLSEYGTFCDNINSILDEVNGLLDTTQLHVADTLMQGVTLSSNLNTNLHFDVDNINFKSLVGCLGPHCGSSSRSFFEDLLFDKVKLSDVGFVEAYNNCTGGSEIRDLLCVQSFNGIKVLPPILSESQISGYTTAATVAAMFPPWSAAAGIPFSLNVQYRINGLGVTMDVLNKNQKLIATAFNNALLSIQNGFSATNSALAKIQSVVNSNAQALNSLLQQLFNKFGAISSSLQEILSRLDALEAQVQIDRLINGRLTALNAYVSQQLSDISLVKFGAALAMEKVNECVKSQSPRINFCGNGNHILSLVQNAPYGLLFMHFSYKPISFKTVLVSPGLCISGDVGIAPKQGYFIKHNDHWMFTGSSYYYPEPISDKNVVFMNTCSVNFTKAPLVYLNHSVPKLSDFESELSHWFKNQTSIAPNLTLNLHTINATFLDLYYEMNLIQESIKSLNNSYINLKDIGTYEMYVKWPWYVWLLISFSFIIFLVLLFFICCCTGCGSACFSKCHNCCDEYGGHHDFVIKTSHDD
B2: HKU1 isolate N1 (genotype A) RBD, wildtype, without avi tag (domain or fragment)
chain: RIPDLPDCDIDKWLNNFNVPSPLNWERKIFSNCNFNLSTLLRLVHTDSFSCNNFDESKIYGSCFKSIVLDKFAIPNSRRSDLQLGSSGFLQSSNYKIDTTSSSCQLYYSLPAINVTINNYNPSSWNRRYGFNNFNLSSHSVVYSRYCFSVNNTFCPCAKPSFASSCKSHKPPSASCPIGTNYRSCESTTVLDHTDWCRCSCLPDPITAYDPRSCSQKKSLVGVGEHCAGFGVDEEKCGVLDGSYNVSCLCSTDAFLGWSYDTCVSNNRCNIFSNFILNGINSGTTCSNDLLQPNT
notes: also called HKU1 RBD; HKU1 RBD (without avi tag); not shown: His8, C-terminal, kept

Molecular target: HKU1 isolate N1 (genotype A) RBD, wildtype, avi-tagged and biotinylated (UniProt Q5MQD0)
Assay: BLI
Details: parent: est. 0.51; read off a plot

| Molecule | response [nm] |
| --- | --- |
| human TMPRSS2 ectodomain, active (S441), with the C379-T447C disulfide bond (from UniProt O15393) R470A | 0.15 |
| human TMPRSS2 ectodomain, active (S441), with the C379-T447C disulfide bond (from UniProt O15393) Y414A | 0.11 |
| human TMPRSS2 ectodomain, active (S441), with the C379-T447C disulfide bond (from UniProt O15393) Y469A | 0.36 |

Same assay, conditions: read off a plot

| Molecule | percent of parent [% WT] |
| --- | --- |
| human TMPRSS2 ectodomain, active (S441), with the C379-T447C disulfide bond (from UniProt O15393) A468P | 57 |
| human TMPRSS2 ectodomain, active (S441), with the C379-T447C disulfide bond (from UniProt O15393) D417N | 7.5 |
| human TMPRSS2 ectodomain, active (S441), with the C379-T447C disulfide bond (from UniProt O15393) K340D | 38 |
| human TMPRSS2 ectodomain, active (S441), with the C379-T447C disulfide bond (from UniProt O15393) L419A | 2.7 |
| human TMPRSS2 ectodomain, active (S441), with the C379-T447C disulfide bond (from UniProt O15393) L419M | 30 |
| human TMPRSS2 ectodomain, active (S441), with the C379-T447C disulfide bond (from UniProt O15393) R409K | 36 |
| human TMPRSS2 ectodomain, active (S441), with the C379-T447C disulfide bond (from UniProt O15393) R409T | 58 |
| human TMPRSS2 ectodomain, active (S441), with the C379-T447C disulfide bond (from UniProt O15393) R413K | 52 |
| human TMPRSS2 ectodomain, active (S441), with the C379-T447C disulfide bond (from UniProt O15393) R413V | 64 |
| human TMPRSS2 ectodomain, active (S441), with the C379-T447C disulfide bond (from UniProt O15393) R470K | 2.1 |
| human TMPRSS2 ectodomain, active (S441), with the C379-T447C disulfide bond (from UniProt O15393) S412N | 77 |
| human TMPRSS2 ectodomain, active (S441), with the C379-T447C disulfide bond (from UniProt O15393) S441A | 95 |
| human TMPRSS2 ectodomain, active (S441), with the C379-T447C disulfide bond (from UniProt O15393) S463F | 2.3 |
| human TMPRSS2 ectodomain, active (S441), with the C379-T447C disulfide bond (from UniProt O15393) S463T | 2.7 |
| human TMPRSS2 ectodomain, active (S441), with the C379-T447C disulfide bond (from UniProt O15393) S463Y | 2.3 |
| human TMPRSS2 ectodomain, active (S441), with the C379-T447C disulfide bond (from UniProt O15393) T341S | 61 |
| human TMPRSS2 ectodomain, active (S441), with the C379-T447C disulfide bond (from UniProt O15393) V415I | 47 |
| human TMPRSS2 ectodomain, active (S441), with the C379-T447C disulfide bond (from UniProt O15393) Y414L | 2.2 |
| human TMPRSS2 ectodomain, active (S441), with the C379-T447C disulfide bond (from UniProt O15393) Y414S | 14 |
| human TMPRSS2 ectodomain, active (S441), with the C379-T447C disulfide bond (from UniProt O15393) Y469N | 5.7 |

Molecular target: human TMPRSS2 ectodomain harboring the S441A residue substitution and the C379-T447C disulfide bond (UniProt O15393)
Assay: BLI
Details: parent: est. 0.54; read off a plot

| Molecule | response [nm] |
| --- | --- |
| HKU1 isolate N1 (genotype A) RBD, wildtype, avi-tagged and biotinylated (from UniProt Q5MQD0) E505A | 0.37 |
| HKU1 isolate N1 (genotype A) RBD, wildtype, avi-tagged and biotinylated (from UniProt Q5MQD0) H488A | 0.17 |
| HKU1 isolate N1 (genotype A) RBD, wildtype, avi-tagged and biotinylated (from UniProt Q5MQD0) Y528A | 0.11 |

Molecular target: not given
Assay: not given
Details: glycan lost

| Molecule | other: neutralisation sensitivity, other: geometric mean ID50 dilution |
| --- | --- |
| B1 | increases |

Molecular target: human TMPRSS2 ectodomain, active (S441), with the C379-T447C disulfide bond (human, UniProt O15393 106-492, T447C)
Assay: enzyme inhibition kinetics (fluorogenic peptide substrate); 5 nM TMPRSS2 with serial dilutions of Boc-QAR-AMC in the presence of 215, 72 or 24 nM HKU1 RBD, 2 min preincubation, 22 °C; fit of competitive inhibition
Details: both partners purified

| Molecule | Ki [nM] |
| --- | --- |
| B2 | 38 ± 5 |
